Assay results published in patent publication US20140087995A1 (published 2014).
Numbered stars: 1 amine (or outer) side, 2 acyl side, 3 side chain; on linkers, the order of the positions; unused ones are H or OH. Bridge positions count the residues as written; N and C are the ends. Side chains are listed from the residue outwards. Ends that are not written are not given here. * marks the point of attachment. C20 diacid = O=C(O)CCCCCCCCCCCCCCCCCCC(=O)*; γGlu = O=C(O)[C@H](CCC(=O)[*:2])N[*:1]; AEEA = NCCOCCOCC(=O)O

T1: human amylin 3(a) receptor (human calcitonin receptor co-expressed with RAMP-3) (human, UniProt P30988 25-474; O60896 24-148, limits assumed)
T1 sequence (looked up) 1: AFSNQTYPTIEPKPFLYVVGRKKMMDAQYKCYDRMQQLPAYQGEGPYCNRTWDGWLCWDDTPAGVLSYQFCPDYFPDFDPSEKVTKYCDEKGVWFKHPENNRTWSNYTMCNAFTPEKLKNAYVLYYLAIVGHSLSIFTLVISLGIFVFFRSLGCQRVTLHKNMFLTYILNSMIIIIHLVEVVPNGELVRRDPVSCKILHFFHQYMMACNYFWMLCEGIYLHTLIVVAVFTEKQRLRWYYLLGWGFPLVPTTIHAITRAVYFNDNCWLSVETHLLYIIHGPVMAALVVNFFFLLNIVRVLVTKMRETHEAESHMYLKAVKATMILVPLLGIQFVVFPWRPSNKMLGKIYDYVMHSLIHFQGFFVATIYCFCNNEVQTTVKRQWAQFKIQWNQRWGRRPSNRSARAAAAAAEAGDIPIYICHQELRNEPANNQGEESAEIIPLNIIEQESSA
T1 sequence (looked up) 2: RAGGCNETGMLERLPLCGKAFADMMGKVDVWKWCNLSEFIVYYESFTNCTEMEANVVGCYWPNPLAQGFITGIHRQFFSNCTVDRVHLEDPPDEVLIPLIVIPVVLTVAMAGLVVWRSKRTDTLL

B1: N^ε1-[2-[2-[2-[[(4S)-4-carboxy-4-(19-carboxynonadecanoylamino)butanoyl]amino]ethoxy]ethoxy]acetyl]-[Arg17,Pro21,Pro27]-h-amylin (peptide)
peptide: K([AEEA-γGlu-C20 diacid])CNTATCATQRLANFLRHSSPNFGAIPSSTNVGSNTY-NH2
modifications: disulfide 2-7; N-terminus assumed
SMILES: CC[C@H](C)[C@H](NC(=O)[C@H](C)NC(=O)CNC(=O)[C@H](Cc1ccccc1)NC(=O)[C@H](CC(N)=O)NC(=O)[C@@H]1CCCN1C(=O)[C@H](CO)NC(=O)[C@H](CO)NC(=O)[C@H](Cc1c[nH]cn1)NC(=O)[C@H](CCCNC(=N)N)NC(=O)[C@H](CC(C)C)NC(=O)[C@H](Cc1ccccc1)NC(=O)[C@H](CC(N)=O)NC(=O)[C@H](C)NC(=O)[C@H](CC(C)C)NC(=O)[C@H](CCCNC(=N)N)NC(=O)[C@H](CCC(N)=O)NC(=O)[C@@H](NC(=O)[C@H](C)NC(=O)[C@@H]1CSSC[C@H](NC(=O)[C@@H](N)CCCCNC(=O)COCCOCCNC(=O)CC[C@H](NC(=O)CCCCCCCCCCCCCCCCCCC(=O)O)C(=O)O)C(=O)N[C@@H](CC(N)=O)C(=O)N[C@@H]([C@@H](C)O)C(=O)N[C@@H](C)C(=O)N[C@@H]([C@@H](C)O)C(=O)N1)[C@@H](C)O)C(=O)N1CCC[C@H]1C(=O)N[C@@H](CO)C(=O)N[C@@H](CO)C(=O)N[C@H](C(=O)N[C@@H](CC(N)=O)C(=O)N[C@H](C(=O)NCC(=O)N[C@@H](CO)C(=O)N[C@@H](CC(N)=O)C(=O)N[C@H](C(=O)N[C@@H](Cc1ccc(O)cc1)C(N)=O)[C@@H](C)O)C(C)C)[C@@H](C)O
notes: also called compound 41
B2: N^ε1-[(4S)-4-carboxy-4-(19-carboxynonadecanoylamino)butanoyl]-[His14,Arg17,Pro21,Pro27]-h-amylin (peptide)
peptide: K([γGlu-C20 diacid])CNTATCATQRLAHFLRHSSPNFGAIPSSTNVGSNTY-NH2
modifications: disulfide 2-7; N-terminus assumed
SMILES: CC[C@H](C)[C@H](NC(=O)[C@H](C)NC(=O)CNC(=O)[C@H](Cc1ccccc1)NC(=O)[C@H](CC(N)=O)NC(=O)[C@@H]1CCCN1C(=O)[C@H](CO)NC(=O)[C@H](CO)NC(=O)[C@H](Cc1c[nH]cn1)NC(=O)[C@H](CCCNC(=N)N)NC(=O)[C@H](CC(C)C)NC(=O)[C@H](Cc1ccccc1)NC(=O)[C@H](Cc1c[nH]cn1)NC(=O)[C@H](C)NC(=O)[C@H](CC(C)C)NC(=O)[C@H](CCCNC(=N)N)NC(=O)[C@H](CCC(N)=O)NC(=O)[C@@H](NC(=O)[C@H](C)NC(=O)[C@@H]1CSSC[C@H](NC(=O)[C@@H](N)CCCCNC(=O)CC[C@H](NC(=O)CCCCCCCCCCCCCCCCCCC(=O)O)C(=O)O)C(=O)N[C@@H](CC(N)=O)C(=O)N[C@@H]([C@@H](C)O)C(=O)N[C@@H](C)C(=O)N[C@@H]([C@@H](C)O)C(=O)N1)[C@@H](C)O)C(=O)N1CCC[C@H]1C(=O)N[C@@H](CO)C(=O)N[C@@H](CO)C(=O)N[C@H](C(=O)N[C@@H](CC(N)=O)C(=O)N[C@H](C(=O)NCC(=O)N[C@@H](CO)C(=O)N[C@@H](CC(N)=O)C(=O)N[C@H](C(=O)N[C@@H](Cc1ccc(O)cc1)C(N)=O)[C@@H](C)O)C(C)C)[C@@H](C)O
notes: also called compound 70
B3: N^ε1-[(4S)-4-carboxy-4-[[(4S)-4-carboxy-4-(19-carboxynonadecanoylamino)butanoyl]amino]butanoyl]-[Glu14,Arg17,Pro21,Pro27,Arg35]-h-amylin (peptide)
peptide: K([γGlu-γGlu-C20 diacid])CNTATCATQRLAEFLRHSSPNFGAIPSSTNVGSRTY-NH2
modifications: disulfide 2-7; N-terminus assumed
SMILES: CC[C@H](C)[C@H](NC(=O)[C@H](C)NC(=O)CNC(=O)[C@H](Cc1ccccc1)NC(=O)[C@H](CC(N)=O)NC(=O)[C@@H]1CCCN1C(=O)[C@H](CO)NC(=O)[C@H](CO)NC(=O)[C@H](Cc1c[nH]cn1)NC(=O)[C@H](CCCNC(=N)N)NC(=O)[C@H](CC(C)C)NC(=O)[C@H](Cc1ccccc1)NC(=O)[C@H](CCC(=O)O)NC(=O)[C@H](C)NC(=O)[C@H](CC(C)C)NC(=O)[C@H](CCCNC(=N)N)NC(=O)[C@H](CCC(N)=O)NC(=O)[C@@H](NC(=O)[C@H](C)NC(=O)[C@@H]1CSSC[C@H](NC(=O)[C@@H](N)CCCCNC(=O)CC[C@H](NC(=O)CC[C@H](NC(=O)CCCCCCCCCCCCCCCCCCC(=O)O)C(=O)O)C(=O)O)C(=O)N[C@@H](CC(N)=O)C(=O)N[C@@H]([C@@H](C)O)C(=O)N[C@@H](C)C(=O)N[C@@H]([C@@H](C)O)C(=O)N1)[C@@H](C)O)C(=O)N1CCC[C@H]1C(=O)N[C@@H](CO)C(=O)N[C@@H](CO)C(=O)N[C@H](C(=O)N[C@@H](CC(N)=O)C(=O)N[C@H](C(=O)NCC(=O)N[C@@H](CO)C(=O)N[C@@H](CCCNC(=N)N)C(=O)N[C@H](C(=O)N[C@@H](Cc1ccc(O)cc1)C(N)=O)[C@@H](C)O)C(C)C)[C@@H](C)O
notes: also called compound 89
B4: N^ε1-[(4S)-4-carboxy-4-[[(4S)-4-carboxy-4-(19-carboxynonadecanoylamino)butanoyl]amino]butanoyl]-[Asp14,Arg17,Pro21,Pro27,Asp35]-h-amylin (peptide)
peptide: K([γGlu-γGlu-C20 diacid])CNTATCATQRLADFLRHSSPNFGAIPSSTNVGSDTY-NH2
modifications: disulfide 2-7; N-terminus assumed
SMILES: CC[C@H](C)[C@H](NC(=O)[C@H](C)NC(=O)CNC(=O)[C@H](Cc1ccccc1)NC(=O)[C@H](CC(N)=O)NC(=O)[C@@H]1CCCN1C(=O)[C@H](CO)NC(=O)[C@H](CO)NC(=O)[C@H](Cc1c[nH]cn1)NC(=O)[C@H](CCCNC(=N)N)NC(=O)[C@H](CC(C)C)NC(=O)[C@H](Cc1ccccc1)NC(=O)[C@H](CC(=O)O)NC(=O)[C@H](C)NC(=O)[C@H](CC(C)C)NC(=O)[C@H](CCCNC(=N)N)NC(=O)[C@H](CCC(N)=O)NC(=O)[C@@H](NC(=O)[C@H](C)NC(=O)[C@@H]1CSSC[C@H](NC(=O)[C@@H](N)CCCCNC(=O)CC[C@H](NC(=O)CC[C@H](NC(=O)CCCCCCCCCCCCCCCCCCC(=O)O)C(=O)O)C(=O)O)C(=O)N[C@@H](CC(N)=O)C(=O)N[C@@H]([C@@H](C)O)C(=O)N[C@@H](C)C(=O)N[C@@H]([C@@H](C)O)C(=O)N1)[C@@H](C)O)C(=O)N1CCC[C@H]1C(=O)N[C@@H](CO)C(=O)N[C@@H](CO)C(=O)N[C@H](C(=O)N[C@@H](CC(N)=O)C(=O)N[C@H](C(=O)NCC(=O)N[C@@H](CO)C(=O)N[C@@H](CC(=O)O)C(=O)N[C@H](C(=O)N[C@@H](Cc1ccc(O)cc1)C(N)=O)[C@@H](C)O)C(C)C)[C@@H](C)O
notes: also called compound 2
B5: N^ε1-[(4S)-4-carboxy-4-[[(4S)-4-carboxy-4-(19-carboxynonadecanoylamino)butanoyl]amino]butanoyl]-[Arg17,Pro21,Pro27,His34]-h-amylin (peptide)
peptide: K([γGlu-γGlu-C20 diacid])CNTATCATQRLANFLRHSSPNFGAIPSSTNVGHNTY-NH2
modifications: disulfide 2-7; N-terminus assumed
SMILES: CC[C@H](C)[C@H](NC(=O)[C@H](C)NC(=O)CNC(=O)[C@H](Cc1ccccc1)NC(=O)[C@H](CC(N)=O)NC(=O)[C@@H]1CCCN1C(=O)[C@H](CO)NC(=O)[C@H](CO)NC(=O)[C@H](Cc1c[nH]cn1)NC(=O)[C@H](CCCNC(=N)N)NC(=O)[C@H](CC(C)C)NC(=O)[C@H](Cc1ccccc1)NC(=O)[C@H](CC(N)=O)NC(=O)[C@H](C)NC(=O)[C@H](CC(C)C)NC(=O)[C@H](CCCNC(=N)N)NC(=O)[C@H](CCC(N)=O)NC(=O)[C@@H](NC(=O)[C@H](C)NC(=O)[C@@H]1CSSC[C@H](NC(=O)[C@@H](N)CCCCNC(=O)CC[C@H](NC(=O)CC[C@H](NC(=O)CCCCCCCCCCCCCCCCCCC(=O)O)C(=O)O)C(=O)O)C(=O)N[C@@H](CC(N)=O)C(=O)N[C@@H]([C@@H](C)O)C(=O)N[C@@H](C)C(=O)N[C@@H]([C@@H](C)O)C(=O)N1)[C@@H](C)O)C(=O)N1CCC[C@H]1C(=O)N[C@@H](CO)C(=O)N[C@@H](CO)C(=O)N[C@H](C(=O)N[C@@H](CC(N)=O)C(=O)N[C@H](C(=O)NCC(=O)N[C@@H](Cc1c[nH]cn1)C(=O)N[C@@H](CC(N)=O)C(=O)N[C@H](C(=O)N[C@@H](Cc1ccc(O)cc1)C(N)=O)[C@@H](C)O)C(C)C)[C@@H](C)O
notes: also called compound 86

Target: T1, human amylin 3(a) receptor (human …)
Assay: cell-based or functional assay

Ratio hCT/hAmylin funct. (hCTR EC50 over hAmylin-R EC50)	hAmylin-R funct. EC50 (pM)	Binder
16.7	260 pM	B1
17.9	40 pM	B2
27.8	404 pM	B3
16.4	182 pM	B4
64.4	298 pM	B5
